According to the supplement of paper PMC10567573:

B1: LOXL2 (parent)
chain: YVEVKEGKTWKQICDKHWTAKNSR
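Note: lentivirally expressed fusions sorted by FACS into six bins by GFP to DsRed ratio, PSI derived from sequencing read proportions per bin multiplied by bin number.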

Variants of: B1
Assay: protein stability index of a GFP-peptide fusion (GPS, HEK-293T) (PSI 1-6); higher = more stable
Conditions: c terminus: a fixed tail appended
Work on YVEVKEGKTWKQINDKHWTAKNSR [C14N] yielded a protein stability index of 1.99. YVEVKEGKTWKQIWDKHWTAKNSR [C14W] showed a protein stability index of 4.18. YVEVKEGKTWKQIQDKHWTAKNSR [C14Q] showed a protein stability index of 1.74. In the case of YVEVKEGKTWKQIMDKHWTAKNSR [C14M], the protein stability index is reported as 2.98. Variant YVEVKEGKTWKQIKDKHWTAKNSR [C14K] has a protein stability index of 1.45. Work on YVEVKEGKTWKQIVDKHWTAKNSR [C14V] yielded a protein stability index of 1.93. For YVEVKEGKTWKQIYDKHWTAKNSR [C14Y], the protein stability index was 1.93. YVEVKEGKTWKQILDKHWTAKNSR [C14L] gave a protein stability index of 1.8. YVEVKEGKTWKQIPDKHWTAKNSR [C14P] gave a protein stability index of 1.98. In the case of YVEVKEGKTWKQIRDKHWTAKNSR [C14R], the protein stability index is reported as 2.33. YVEVKEGKTWKQITDKHWTAKNSR [C14T] showed a protein stability index of 2.52. Work on YVEVKEGKTWKQISDKHWTAKNSR [C14S] yielded a protein stability index of 1.75. YVEVKEGKTWKQICDKTWTAKNSR [H17T] gave a protein stability index of 1.97. With YVEVKEGKTWKQICDKCWTAKNSR [H17C] the protein stability index was 1.56. Variant YVEVKEGKTWKQICDKPWTAKNSR [H17P] has a protein stability index of 3.06. YVEVKEGKTWKQICDKMWTAKNSR [H17M] showed a protein stability index of 2.41. Variant YVEVKEGKTWKQICDKYWTAKNSR [H17Y] has a protein stability index of 3.47. YVEVKEGKTWKQICDKNWTAKNSR [H17N] gave a protein stability index of 2.89. In the case of YVEVKEGKTWKQICDKAWTAKNSR [H17A], the protein stability index is reported as 3. In the case of YVEVKEGKTWKQICDKRWTAKNSR [H17R], the protein stability index is reported as 3.35. Variant YVEVKEGKTWKQICDKFWTAKNSR [H17F] has a protein stability index of 3.2. YVEVKEGKTWKQICDKIWTAKNSR [H17I] showed a protein stability index of 2.14. In the case of YVEVKEGKTWKQICDKSWTAKNSR [H17S], the protein stability index is reported as 1.82. For YVEVKEGKTWKQICDKLWTAKNSR [H17L], the protein stability index was 2.81. For YVEVKEGKTWKQICDKEWTAKNSR [H17E], the protein stability index was 2.3. YVEVKEGKTWKQICDKKWTAKNSR [H17K] gave a protein stability index of 2.98. In the case of YVEVKEGKTWKQICDKVWTAKNSR [H17V], the protein stability index is reported as 3.44. YVEVKEGKTWKQICDKGWTAKNSR [H17G] showed a protein stability index of 3.27. With YVEVKEGKTWKQICDKDWTAKNSR [H17D] the protein stability index was 1.84. YVEVKEGKTWKQICDKQWTAKNSR [H17Q] gave a protein stability index of 1.53. For YVEVKEGKTWKQICDKHVTAKNSR [W18V], the protein stability index was 2.66. With YVEVKEGKTWKQICDKHFTAKNSR [W18F] the protein stability index was 2.54. With YVEVKEGKTWKQICDKHLTAKNSR [W18L] the protein stability index was 2.19. YVEVKEGKTWKQICDKHDTAKNSR [W18D] showed a protein stability index of 3.01. For YVEVKEGKTWKQICDKHMTAKNSR [W18M], the protein stability index was 2.46. For YVEVKEGKTWKQICDKHTTAKNSR [W18T], the protein stability index was 1.94. In the case of YVEVKEGKTWKQICDKHCTAKNSR [W18C], the protein stability index is reported as 2.54. In the case of YVEVKEGKTWKQICDKHATAKNSR [W18A], the protein stability index is reported as 2.76. YVEVKEGKTWKQICDKHPTAKNSR [W18P] showed a protein stability index of 1.94. Variant YVEVKEGKTWKQICDKHITAKNSR [W18I] has a protein stability index of 1.96. In the case of YVEVKEGKTWKQICDKHYTAKNSR [W18Y], the protein stability index is reported as 1.56. YVEVKEGKTWKQICDKHNTAKNSR [W18N] showed a protein stability index of 2.58. Variant YVEVKEGKTWKQICDKHGTAKNSR [W18G] has a protein stability index of 2. YVEVKEGKTWKQICDKHHTAKNSR [W18H] gave a protein stability index of 3.04. Work on YVEVKEGKTWKQICDKHETAKNSR [W18E] yielded a protein stability index of 2.52. YVEVKEGKTWKQICDKHKTAKNSR [W18K] gave a protein stability index of 2.11. For YVEVKEGKTWKQICDKHSTAKNSR [W18S], the protein stability index was 2.05. YVEVKEGKTWKQICDKHRTAKNSR [W18R] gave a protein stability index of 1.5. Work on YVEVKEGKTWKQICDKHQTAKNSR [W18Q] yielded a protein stability index of 1.84. Work on YVEVKEGKTWKQICMKHWTAKNSR [D15M] yielded a protein stability index of 2.05. Variant YVEVKEGKTWKQICGKHWTAKNSR [D15G] has a protein stability index of 2.64. Variant YVEVKEGKTWKQICRKHWTAKNSR [D15R] has a protein stability index of 1.8. In the case of YVEVKEGKTWKQICPKHWTAKNSR [D15P], the protein stability index is reported as 1.76. YVEVKEGKTWKQICHKHWTAKNSR [D15H] gave a protein stability index of 2.49. With YVEVKEGKTWKQICSKHWTAKNSR [D15S] the protein stability index was 2.56. In the case of YVEVKEGKTWKQICKKHWTAKNSR [D15K], the protein stability index is reported as 2.94. Variant YVEVKEGKTWKQICVKHWTAKNSR [D15V] has a protein stability index of 2.49. In the case of YVEVKEGKTWKQICLKHWTAKNSR [D15L], the protein stability index is reported as 2.62. YVEVKEGKTWKQICCKHWTAKNSR [D15C] showed a protein stability index of 1.72. In the case of YVEVKEGKTWKQICNKHWTAKNSR [D15N], the protein stability index is reported as 2.27. YVEVKEGKTWKQICFKHWTAKNSR [D15F] gave a protein stability index of 2.12. Work on YVEVKEGKTWKQICQKHWTAKNSR [D15Q] yielded a protein stability index of 2.56. For YVEVKEGKTWKQICIKHWTAKNSR [D15I], the protein stability index was 1.83. With YVEVKEGKTWKQICYKHWTAKNSR [D15Y] the protein stability index was 2.13. With YVEVKEGKTWKQICTKHWTAKNSR [D15T] the protein stability index was 2.26. In the case of YVEVKEGKTWKQICEKHWTAKNSR [D15E], the protein stability index is reported as 3.34. YVEVKEGKTWKQICWKHWTAKNSR [D15W] showed a protein stability index of 2.6. In the case of YVEVKEGKTWKQICAKHWTAKNSR [D15A], the protein stability index is reported as 2.96. Work on YVEVKEGKTWKQICDMHWTAKNSR [K16M] yielded a protein stability index of 2.3. YVEVKEGKTWKQICDAHWTAKNSR [K16A] showed a protein stability index of 2.08. YVEVKEGKTWKQICDIHWTAKNSR [K16I] gave a protein stability index of 2.32. In the case of YVEVKEGKTWKQICDNHWTAKNSR [K16N], the protein stability index is reported as 1.93. YVEVKEGKTWKQICDPHWTAKNSR [K16P] showed a protein stability index of 1.95. YVEVKEGKTWKQICDFHWTAKNSR [K16F] gave a protein stability index of 2.02. Variant YVEVKEGKTWKQICDVHWTAKNSR [K16V] has a protein stability index of 2.46. In the case of YVEVKEGKTWKQICDEHWTAKNSR [K16E], the protein stability index is reported as 1.19. Variant YVEVKEGKTWKQICDYHWTAKNSR [K16Y] has a protein stability index of 2.82. For YVEVKEGKTWKQICDLHWTAKNSR [K16L], the protein stability index was 2.42. In the case of YVEVKEGKTWKQICDSHWTAKNSR [K16S], the protein stability index is reported as 3.34. Work on YVEVKEGKTWKQICDGHWTAKNSR [K16G] yielded a protein stability index of 3.14. With YVEVKEGKTWKQICDQHWTAKNSR [K16Q] the protein stability index was 2.24. In the case of YVEVKEGKTWKQICDWHWTAKNSR [K16W], the protein stability index is reported as 2.44. In the case of YVEVKEGKTWKQICDHHWTAKNSR [K16H], the protein stability index is reported as 2.83. YVEVKEGKTWKQICDRHWTAKNSR [K16R] gave a protein stability index of 3.43. YVEVKEGKTWKQICDDHWTAKNSR [K16D] showed a protein stability index of 3.38. In the case of YVEVKEGKTWKQICDKHWDAKNSR [T19D], the protein stability index is reported as 2.34. For YVEVKEGKTWKQICDKHWLAKNSR [T19L], the protein stability index was 1.39. In the case of YVEVKEGKTWKQICDKHWGAKNSR [T19G], the protein stability index is reported as 2.56. YVEVKEGKTWKQICDKHWCAKNSR [T19C] showed a protein stability index of 2.75. Variant YVEVKEGKTWKQICDKHWKAKNSR [T19K] has a protein stability index of 1.87. With YVEVKEGKTWKQICDKHWEAKNSR [T19E] the protein stability index was 2.15. YVEVKEGKTWKQICDKHWAAKNSR [T19A] gave a protein stability index of 1.45. Work on YVEVKEGKTWKQICDKHWFAKNSR [T19F] yielded a protein stability index of 2.16. For YVEVKEGKTWKQICDKHWHAKNSR [T19H], the protein stability index was 1.78.
